According to PMC5829129, “Synthesis of an Al^18F radiofluorinated GLU-UREA-LYS(AHX)-HBED-CC PSMA ligand in an automated synthesis platform” (EJNMMI Radiopharmacy and Chemistry, 2018):
Like-named read-outs stand apart in the source and are kept apart here.

Key:
[1] = cited from earlier work
Text: However, the work of S. Lütje, et al. presented in the EANM 2017, obtain a product which is not stable in PBS, TFA or ethanol. In addition, the product presented in vivo a bone uptake associated with instability of the compound. (Lütje et al. [2017]). Nevertheless E. Al-Momani et al. (Al-Momami et al. [2017]) reported that the stability of the radiopharmaceutical was highly dependent of the formulation conditions, being stable in saline solution with 1% of ethanol or acetate buffer pH 6, and not stable in ethanol 10%/PBS. || Our results with the automated synthesis were in agreement with those previously reported by N. Malik, et by a manual process. In this paper the optimal pH of labeling turned out to be 5 and the stability was greater than 90% at 4 h post production (Malik et al. [2015]). || Recently Kersemans et al. ([n.d.]) have reported an automated synthesis of this radiopharmaceutical in a modified SynthraFCHOL synthesis module (Synthra GmbH, Hamburg, Germany), with a similar e.o.s yield. 100 to 200 μg of the peptide were necessary to achieve a labelling yield higher than 70%. The radiopharmaceutical was stable in buffer phosphate 5 mM pH 7 at least during 150 min.

[2] = test system: LNCaP human prostate cancer cell line xenograft; experiment: In vivo PET/CT imaging of LNCaP xenograft mice, tumour/muscle ratio; set-up: species or system Nude N: NIH (S) – Foxn 1nu mice; settings: PET, 60 min after iv injection (33–46 MBq), LNCaP xenograft nude mice, n = 3
Experimental: Nude N: NIH (S) – Foxn 1nu mice […] were used as prostate cancer tumour model, for in vivo studies. Animals were housed in racks with filtered air under controlled conditions temperature (24 ± 1) °C and relative humidity (40–60)%). They were maintained on a 14:10 h light/dark cycles in the CUDIM animal facility with food and water ad libitum.
For the development of a xenographic human prostate cancer model, LNCaP human prostate cancer cell line (ATCC ATCC® CRL-1740™).
A xenographic human prostate cancer model was used as the prostate cancer tumour model. 5 million LNCaP cells, suspended in 200 μL of culture media (RPMI) with matrix gel, were injected subcutaneously into the left upper leg of male nude mice (2 months old). Appropriate tumour volumes (100–350 mm^3) were achieved between four to six weeks post inoculation. Percutaneous testorerone was daily applied to each mice. Tumours were measured once a week with a microcalliper in two dimensions, and tumour volumes were calculated as (smaller diameter)^2 x larger diameter x π/6.
PET/CT scans were performed using a small animal tri-modality PET/SPECT/CT scanner (TriumphTM, TriFoil, Inc., US) based on Quad-APD detector modules coupled with LYSO/LGSO scintillators (spatial resolution: 1.0 mm; axial field of view (FOV): 3.75 cm). […]
Image processing and semi-quantitative analysis was done using PMOD software, v.3.4. […]

[3] = format: physicochemical; settings: for Radiochemical purity in the final formulation at room temperature: final formulation vial, HPLC C8, gamma detector, n = 3
Experimental: The radiochemical purity (RP) was determined using HPLC analysis, a reverse phase column Agilent ZORBAX Eclipse Plus C8 4.6x150mm 5 μm column, flux 2.0 mL/min and the following solvent gradient: (A) TFA 0.1% (v/v) in water, (B) TFA 0.1% (v/v) in acetonitrile; 0–7 min 0 %B, 7–10 min (0–50) %B with GAMMA detector. The stability in the labeling milieu, after purification and preconditioning [^18F]-AlF-PSMA, was performed after incubation the final formulation vial at room temperature for 4 h. In both cases, samples were analyzed by HPLC, using previously described chromatographic conditions.

[4] = cited from earlier work; remark: listed apart in the source
Text: However, the work of S. Lütje, et al. presented in the EANM 2017, obtain a product which is not stable in PBS, TFA or ethanol. In addition, the product presented in vivo a bone uptake associated with instability of the compound. (Lütje et al. [2017]). Nevertheless E. Al-Momani et al. (Al-Momami et al. [2017]) reported that the stability of the radiopharmaceutical was highly dependent of the formulation conditions, being stable in saline solution with 1% of ethanol or acetate buffer pH 6, and not stable in ethanol 10%/PBS.

Substance: [^18F]AlF-[GLU-UREA-LYS(AHX)-HBED-CC] [[^18F]AlF-PSMA-11]
- Stability in PBS, TFA or ethanol [1]: not stable
- Stability in ethanol 10%/PBS [1]: not stable
- Stability at 4 h post production ([1]; pH 5): greater than 90%
- Stability in saline solution with 1% of ethanol or acetate buffer pH 6 ([1]; pH 6): stable
- Time of stability in buffer phosphate 5 mM pH 7 ([1]; pH 7): ≥ 150 min
- mean T/M ratio (T = Tumor, M = muscle) [2]: 2.2 ± 0.9
- Time of stability in the final formulation vial [3]: 4 h
- Radiochemical purity in the final formulation vial ([3]; during 4 h post production, room temperature, HPLC): greater than 90%
- Radiochemical purity in the final formulation at room temperature ([3]; room temperature, 1 h post synthesis): 94.6 ± 1.8%
- Radiochemical purity in the final formulation at room temperature ([3]; room temperature, 2 h post synthesis): 92.8 ± 2.5%
- Radiochemical purity in the final formulation at room temperature ([3]; room temperature, 3 h post synthesis): 93.7 ± 2.0%
- Radiochemical purity in the final formulation at room temperature ([3]; room temperature, 4 h post synthesis): 94.2 ± 2.8%
- In vivo bone uptake associated with instability of the compound [4]: bone uptake
